In the data set the target is hnRNP A1 spin-labelled at 231 (Homo sapiens, UniProt P09651-2 1-320, M1G;C43S;C175A;S231C). The data set is described as follows: CW EPR.

We go through 1 molecule from paper doi:10.1101/2022.03.21.485092.

Turning to CCAGCAUUAUGAAAAUGA (ssRNA) [RNAga (3' AG motif mutated)], the binding result was “binds”.
